This series deals with the molecule itself. In words: SDS-PAGE and immunoblot without and with DTT; purified proteins separated under non-reducing and reducing conditions; composite agarose/polyacrylamide gel for intact TSPs; oligomers held by interchain disulphide bonds. (In general: Immunoblotting shows a protein as a band on a membrane.)

B1: thrombospondin-4 (TSP-4), recombinant full-length rat, N-terminal double strep II-tag (natural protein)
chain: not shown
notes: thrombospondin-4, rat, called full-length; the PCR product lacks the natural signal peptide and was cloned in frame with the BM-40 signal peptide; A thrombin cleavage site lies between the tag and the protein; Pentamer held by interchain disulphide bonds; glycosylated; also called full-length pentameric TSP-4; source: HEK293-EBNA, secreted, purified from culture supernatant (streptactin-sepharose)
What is called stoichiometry N is the number of molecules, sites or subunits per partner or assembly. For B1, the “stoichiometry N” value came to 5.

B2: thrombospondin-2 (TSP-2), recombinant full-length murine, N-terminal double strep II-tag (natural protein)
chain: not shown
notes: thrombospondin-2, mouse, called full-length; the PCR product lacks the natural signal peptide and was cloned in frame with the BM-40 signal peptide; A thrombin cleavage site lies between the tag and the protein; Trimer held by interchain disulphide bonds; heavily glycosylated; source: HEK293-EBNA, secreted, purified from culture supernatant (streptactin-sepharose)
In the case of B2, the “stoichiometry N” value was determined as 3.

B3: cartilage oligomeric matrix protein (COMP, TSP-5), recombinant full-length rat, N-terminal double strep II-tag (natural protein)
chain: not shown
notes: cartilage oligomeric matrix protein, rat, called full-length; the PCR product lacks the natural signal peptide and was cloned in frame with the BM-40 signal peptide; A thrombin cleavage site lies between the tag and the protein; Pentamer held by interchain disulphide bonds; also called TSP-5/COMP; source: HEK293-EBNA, secreted, purified from culture supernatant (streptactin-sepharose)
As for B3, the “stoichiometry N” value stood at 5.

For the origin of these results see paper PMC6838084, “Direct, gabapentin-insensitive interaction of a soluble form of the calcium channel subunit α2δ-1 with thrombospondin-4” (Scientific Reports, 2019).
